Reference: paper PMC9275233, “Functional Characterization of a Regiospecific Sugar-O-Methyltransferase from Nocardia” (Applied and Environmental Microbiology, 2022)

Columns and labels:
[1] = tested on: C[C@@H]1O[C@@H](Oc2ccc(O)c3c2C(=O)c2ccccc2C3=O)[C@H](O)[C@H](O)[C@H]1O; assay: HPLC methylation assay, nonlinear Michaelis-Menten fit; assay type: biochemical, Nocardia sp. CS682; conditions: 2 mM SAM (saturating), 2 mM MgCl2, 50 mM Tris-HCl pH 7.5, QR 5 to 200 μM
[2] = tested on: C[S+](CC[C@H](N)C(=O)O)C[C@H]1O[C@@H](n2cnc3c(N)ncnc32)[C@H](O)[C@@H]1O; assay: as above; assay type: biochemical, Nocardia sp. CS682; conditions: 100 μM QR (near saturation), 2 mM MgCl2, 50 mM Tris-HCl pH 7.5, SAM 5 to 200 μM

ThnM1 (Nocardia sp. CS682)
Km [1]: 11.70 ± 1.97 µM
Km [2]: 32.7 ± 7.06 µM
